Patent CN107042091A

Assays:
Myc-GST融合蛋白 [1] = experiment: ELISA, Myc-GST coated at 5 μg/mL, HRP anti-His second antibody, heat test at 70℃ for 30 min
Myc-GST融合蛋白 [2] = experiment: ELISA, Myc-GST coated at 5 μg/mL, HRP anti-His second antibody, heat test at 90℃ for 30 min
Myc-GST融合蛋白 [3] = experiment: ELISA, Myc-GST coated at 5 μg/mL, HRP anti-His second antibody, heat test at 80℃ for 30 min

OD450 (Myc-GST融合蛋白 [1]): 1.4 | OD450 (Myc-GST融合蛋白 [2]): 1.1 | OD450 (Myc-GST融合蛋白 [3]): 1.3
B1: 抗c-Myc标签单域重链抗体 (VHH, not shown: small tags and cut ends)
VHH: QLQLVESGGGEVHPGGSLTLSCEVSGINPAYYAIGWFHQSPGKEREGVACISQGGAKTNYADSVKGRFTISRDSAKNTVYLHMNSLQSEDTGSYYCARRRGAYCTESNSAGDYASWGQGTQVTVST
